Measured values as given in PMC12207370 (2025).
Bridge positions count the residues as written; N and C are the ends. Square brackets hold non-standard residues; d marks the D form. Ends that are not written are not given here.

B1: CD59 (immobilized for SPR) (receptor)
chain: LQCYNCPNPTADCKTAVNCSSDFDACLITKAGLQVYNKCWKFEHCNFNDVTTRLRENELTYYCCKKDLCNFNEQLEN

How the values were obtained:
Assay in all cases: SPR
[1] = molecular target: B1
[2] = molecular target: B1
rILYd4 = rILYd4 (Streptococcus intermedius, UniProt Q9LCB8 1-532)
CP-04 = molecular target: CP-04
CP-03 = molecular target: CP-03
CP-13 = CP-13 (N-terminal Ac-D-Tyr cyclized to a C-terminal Cys (thioether macrocycle))
CP-02 = molecular target: CP-02

Binder: {CH2CO}-[dY]SWTWGNRSSVRGC (thioether N-14) [CP-06]
- Kd [1]: 11.3 nM
- koff [2]: 0.0204 s⁻¹

Binder: B1
- Kd (rILYd4): 48.3 nM
- Kd (CP-04): 11.9 nM
- Kd (CP-03): 23.4 nM
- Kd (CP-13): 10.8 nM
- Kd (CP-02): 15.3 nM
